Laboratory results taken from article PMC7840946 (2021).
Read-outs that look alike come from different tables or passages of the source.

B1: mAb p4-163 (human IgG1) (antibody, V domains shown)
VH: EVQLVESGGGLVKPGGSLRLSCAASGFTFESHRMHWVRQAPGKGLEWVSSIISSRTYIYYADSVKGRFTISRDNSRNSLFLQMNSLRAEDTAVYYCARGDYYYDGVASDPHFDNWGQGTLVTVSS
VL: QSVLTQPPSASGTPGQRVTISCSGGRSNIGSNYVYWFQQLPGTAPQLLIYRNIQRPSGVPARFSGSKSGTSASLAISGLRSEDEADYYCATWDDSLSGVVFGGGTKVTVL
B2: p4-36gl, predicted germline version of mAb p4-36 (antibody, V domains shown)
VH: EVQLVESGGGLVQPGRSLRLSCTASGFTFGDYAMSWVRQAPGKGLEWVGFIRSKAYGGTTEYAASVKGRFTISRDDSKSIAYLQMNSLKTEDTAVYYCTGPRPYYDSSGYYPYYFDYWGQGTLVTVSS
VL: QSALTQPRSVSGSPGQSVTISCTGTSSDVGGYNYVSWYQQHPGKAPKLMIYDVSKRPSGVPDRFSGSKSGNTASLTISGLQAEDEADYYCCSYAGSYTYVVFGGGTKLTVL
B3: mAb p4-170 (human IgG1) (antibody, V domains shown)
VH: EVQLVESGGGLVKPGGSLRLSCAASGFTFSSHRMHWVRQAPGKGLEWVSSIISSRTYIYYADSVKGRFTISRDNSGNSLFLQMNSLRVEDTAVYYCARGDYYYDGVASDPHFDNWGQGTLVTVSS
VL: QSVLTQTPSASGTPGQRVTISCSGSRSNIGSNYVYWFQQFPGAAPQLLIYRNIQRPSGVPARFSGSKSDTSASLAISGLRSEDEAHYYCAAWDDSLSGVVFGGGTKVTVL

Assays:
[1] = molecular target: T1, PstS1 (Rv0934), recombinant, wild type (Mycobacterium tuberculosis, UniProt P9WGU1); experiment: SPR
[2] = molecular target: T1, PstS1 (Rv0934), recombinant, wild type; experiment: SPR; remark: listed apart in the source

T1 sequence (P9WGU1 25-374): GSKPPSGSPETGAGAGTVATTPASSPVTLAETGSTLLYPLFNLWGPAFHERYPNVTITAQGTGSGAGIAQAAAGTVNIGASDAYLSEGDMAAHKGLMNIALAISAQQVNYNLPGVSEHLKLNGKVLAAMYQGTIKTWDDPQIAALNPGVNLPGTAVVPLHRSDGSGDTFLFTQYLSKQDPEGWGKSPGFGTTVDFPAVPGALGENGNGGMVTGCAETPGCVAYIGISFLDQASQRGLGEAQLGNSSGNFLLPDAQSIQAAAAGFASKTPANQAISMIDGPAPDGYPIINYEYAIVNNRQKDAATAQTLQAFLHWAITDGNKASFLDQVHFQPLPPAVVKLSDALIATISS

Row | Binder | Kd [1] [nM] | Kd [2] [nM]
1 | B1 | 4.45 | 
2 | B2 |  | 6.85
3 | B3 | 1.34 | 
